Assay results from article PMC8669613 (Cell reports, 2021).

Tests used:
[1] = target: T1, GST-SdhA-CBM2 (1029-1260aa) (Legionella pneumophila, UniProt Q6RCQ3 1029-1260); assay: pull-down
[2] = target: T1, GST-SdhA-CBM2 (1029-1260aa); assay: ELISA

Binder	fold pull-down above the GST control [1]	binding result [2]
GFP-tagged, full-length OCRL (natural protein) not shown	~47 fold	
His-tagged ASH/RhoGAP domain of OCRL (536aa-901aa) (domain or fragment) not shown		binds
His-tagged ASH domain of OCRL (536aa-678aa) (domain or fragment) not shown		binds
